Experiments:
[1] = biological target: T1, NRPE1-Flag (Pol V) (Arabidopsis thaliana, UniProt Q5D869 1-1976); assay: immunoprecipitation and mass spectrometry
T1 construct: Bait for the purification of the Pol V complex; also called Flag-tagged Pol V; not shown: Flag tag

[2] = biological target: T2, H3K9me1 peptide (UniProt P59226 2-16, monomethyl-lysine at K9); assay: ITC; reference is the unmodified H3 peptide
T2 peptide (looked up): ARTKQTARKSTGGKA
Experimental: (§1) All the binding experiments were performed on a Microcal calorimeter ITC 200 instrument at 6° C. First, protein samples were dialyzed overnight against a buffer of 100 mM NaCl, 2 mM β-mercaptoethanol and 20 mM HEPES, pH 7.5, at 4° C. Then the protein samples were diluted and the lyophilized peptides were dissolved with the same buffer. The titration was performed according to standard protocol and the data were fit using the Origin 7.0 program with a 1:1 binding model.

[3] = biological target: T3, H3(1-15)K9me2 peptide (UniProt P59226 2-16, dimethyl-lysine at K9); assay: ITC; reference is the unmodified H3 peptide
T3 construct: range 2-16; Residues 1-15 are stated for the peptide in the crystal structure; also called H3K9me2 peptide; H3K9me2
T3 peptide (looked up): ARTKQTARKSTGGKA
Experimental: as §1

[4] = biological target: T4, H3K9me3 peptide (UniProt P59226 2-16, trimethyl-lysine at K9); assay: ITC; reference is the unmodified H3 peptide
T4 peptide (looked up): ARTKQTARKSTGGKA
Experimental: as §1

T1 sequence (Q5D869 whole entry): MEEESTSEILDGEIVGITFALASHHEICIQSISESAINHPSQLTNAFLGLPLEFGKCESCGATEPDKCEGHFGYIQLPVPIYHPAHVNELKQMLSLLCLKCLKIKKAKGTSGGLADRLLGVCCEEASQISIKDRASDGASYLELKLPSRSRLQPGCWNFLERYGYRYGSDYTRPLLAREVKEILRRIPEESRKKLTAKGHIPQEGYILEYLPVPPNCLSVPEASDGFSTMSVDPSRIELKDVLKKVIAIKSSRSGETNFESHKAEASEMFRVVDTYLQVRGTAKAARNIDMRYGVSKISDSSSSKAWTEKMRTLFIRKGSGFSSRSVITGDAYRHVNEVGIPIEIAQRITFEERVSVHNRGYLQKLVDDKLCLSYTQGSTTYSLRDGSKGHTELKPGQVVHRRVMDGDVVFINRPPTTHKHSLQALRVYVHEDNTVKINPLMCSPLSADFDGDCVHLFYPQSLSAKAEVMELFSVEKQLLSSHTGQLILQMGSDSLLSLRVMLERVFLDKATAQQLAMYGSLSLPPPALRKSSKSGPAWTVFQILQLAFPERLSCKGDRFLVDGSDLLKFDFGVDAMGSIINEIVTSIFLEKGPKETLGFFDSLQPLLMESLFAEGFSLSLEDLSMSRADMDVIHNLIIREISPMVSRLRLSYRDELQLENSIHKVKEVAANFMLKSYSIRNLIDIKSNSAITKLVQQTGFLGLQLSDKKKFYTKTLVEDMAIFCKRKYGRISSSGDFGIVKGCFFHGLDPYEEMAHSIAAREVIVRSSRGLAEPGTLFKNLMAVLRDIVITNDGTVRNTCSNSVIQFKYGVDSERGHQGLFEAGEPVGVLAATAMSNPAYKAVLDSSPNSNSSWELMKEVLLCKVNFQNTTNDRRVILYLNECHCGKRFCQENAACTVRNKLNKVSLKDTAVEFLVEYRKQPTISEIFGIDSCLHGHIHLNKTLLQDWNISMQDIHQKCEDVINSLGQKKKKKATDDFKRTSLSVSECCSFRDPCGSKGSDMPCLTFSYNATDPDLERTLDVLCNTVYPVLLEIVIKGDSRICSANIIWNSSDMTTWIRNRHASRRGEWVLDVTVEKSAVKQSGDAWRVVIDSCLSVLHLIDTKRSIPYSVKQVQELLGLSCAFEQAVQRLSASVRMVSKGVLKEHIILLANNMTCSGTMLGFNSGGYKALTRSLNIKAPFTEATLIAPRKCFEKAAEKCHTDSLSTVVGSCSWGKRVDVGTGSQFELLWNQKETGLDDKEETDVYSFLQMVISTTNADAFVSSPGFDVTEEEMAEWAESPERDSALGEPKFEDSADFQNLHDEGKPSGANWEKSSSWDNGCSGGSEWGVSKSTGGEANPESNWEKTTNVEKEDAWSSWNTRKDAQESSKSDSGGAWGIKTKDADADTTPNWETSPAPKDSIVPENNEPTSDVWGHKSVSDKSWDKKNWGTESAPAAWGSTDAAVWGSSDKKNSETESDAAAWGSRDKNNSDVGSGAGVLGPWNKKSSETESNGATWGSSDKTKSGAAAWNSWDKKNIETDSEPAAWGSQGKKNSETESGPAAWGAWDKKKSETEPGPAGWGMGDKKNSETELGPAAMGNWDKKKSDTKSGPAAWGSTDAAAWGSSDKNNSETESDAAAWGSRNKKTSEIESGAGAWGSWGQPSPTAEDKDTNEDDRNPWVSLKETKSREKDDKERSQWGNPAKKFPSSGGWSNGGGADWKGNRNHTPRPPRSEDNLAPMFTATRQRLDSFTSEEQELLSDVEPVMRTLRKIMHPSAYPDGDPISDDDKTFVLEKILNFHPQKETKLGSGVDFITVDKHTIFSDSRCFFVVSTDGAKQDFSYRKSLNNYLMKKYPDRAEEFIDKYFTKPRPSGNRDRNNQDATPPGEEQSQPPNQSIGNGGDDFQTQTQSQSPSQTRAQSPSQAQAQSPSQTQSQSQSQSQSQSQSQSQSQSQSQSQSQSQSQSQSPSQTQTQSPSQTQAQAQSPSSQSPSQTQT

B1: SUVH9 (other)
chain: MGSSHIPLDPSLNPSPSLIPKLEPVTESTQNLAFQLPNTNPQALISSAVSDFNEATDFSSDYNTVAESARSAFAQRLQRHDDVAVLDSLTGAIVPVEENPEPEPNPYSTSDSSPSVATQRPRPQPRSSELVRITDVGPESERQFREHVRKTRMIYDSLRMFLMMEEAKRNGVGGRRARADGKAGKAGSMMRDCMLWMNRDKRIVGSIPGVQVGDIFFFRFELCVMGLHGHPQSGIDFLTGSLSSNGEPIATSVIVSGGYEDDDDQGDVIMYTGQGGQDRLGRQAEHQRLEGGNLAMERSMYYGIEVRVIRGLKYENEVSSRVYVYDGLFRIVDSWFDVGKSGFGVFKYRLERIEGQAEMGSSVLKFARTLKTNPLSVRPRGYINFDISNGKENVPVYLFNDIDSDQEPLYYEYLAQTSFPPGLFVQQSGNASGCDCVNGCGSGCLCEAKNSGEIAYDYNGTLIRQKPLIHECGSACQCPPSCRNRVTQKGLRNRLEVFRSLETGWGVRSLDVLHAGAFICEYAGVALTREQANILTMNGDTLVYPARFSSARWEDWGDLSQVLADFERPSYPDIPPVDFAMDVSKMRNVACYISHSTDPNVIVQFVLHDHNSLMFPRVMLFAAENIPPMTELSLDYGVVDDWNAKLAICN
notes: Endogenous protein searched for by mass spectrometry in Pol V purifications; also called SUVH2/9 peptides
[1]
  binding result: no binding

B2: SHH1 SAWADEE domain (residues 125-258) (other)
chain: ADLAFEAKSARDYAWYDVSSFLTYRVLRTGELEVRVRFSGFDNRHDEWVNVKTSVRERSIPVEPSECGRVNVGDLLLCFQEREDQALYCDGHVLNIKRGIHDHARCNCVFLVRYELDNTEESLGLERICRRPEE
[2]
  fold higher affinity than with unmodified H3 peptides: ~17 fold
[3]
  fold higher affinity than with unmodified H3 peptides: ~17 fold
[4]
  fold higher affinity than with unmodified H3 peptides: ~17 fold

B3: SUVH2 (other)
chain: MSTLLPFPDLNLMPDSQSSTAGTTAGDTVVTGKLEVKSEPIEEWQTPPSSTSDQSANTDLIAEFIRISELFRSAFKPLQVKGLDGVSVYGLDSGAIVAVPEKENRELIEPPPGFKDNRVSTVVVSPKFERPRELARIAILGHEQRKELRQVMKRTRMTYESLRIHLMAESMKNHVLGQGRRRRSDMAAAYIMRDRGLWLNYDKHIVGPVTGVEVGDIFFYRMELCVLGLHGQTQAGIDCLTAERSATGEPIATSIVVSGGYEDDEDTGDVLVYTGHGGQDHQHKQCDNQRLVGGNLGMERSMHYGIEVRVIRGIKYENSISSKVYVYDGLYKIVDWWFAVGKSGFGVFKFRLVRIEGQPMMGSAVMRFAQTLRNKPSMVRPTGYVSFDLSNKKENVPVFLYNDVDGDQEPRHYEYIAKAVFPPGIFGQGGISRTGCECKLSCTDDCLCARKNGGEFAYDDNGHLLKGKHVVFECGEFCTCGPSCKSRVTQKGLRNRLEVFRSKETGWGVRTLDLIEAGAFICEYAGVVVTRLQAEILSMNGDVMVYPGRFTDQWRNWGDLSQVYPDFVRPNYPSLPPLDFSMDVSRMRNVACYISHSKEPNVMVQFVLHDHNHLMFPRVMLFALENISPLAELSLDYGLADEVNGKLAICN
notes: Endogenous protein, detected or searched for by mass spectrometry in immunoprecipitates; also called SUVH2 peptides
[1]
  binding result: no binding

Source: patent US20160017348A1 (University of California, published 2016)
